Experimental findings from a protein production outcome set (Wang et al. 2014) are described below.

A short description of this data set: label from the status in PepcDB records.
With “MNYPKAILLSLALLAMHSLNAEVVTYPAGVGVKTLNDFSVEVRQGSGPWLPVDVYPVKVDRVDEKGHNVEVASIAYFDFDGMVDVRVISNKERVNSVRVRPLSYKITPDCVGDTVTFSLSRPRNLSVEVNGDIFHNLHLFANPIDKFRPSDKEIQRALKKKKGSNLIYFGPGVHNLPNDTLFVPSGTTVYIDGGARVYGNIFTEGAHDVNIFGRGEVHPDGRGAGVWVRRSKNVRIDGIVVSQLPIGQCDSVELTNVKSISYYGWGDGMDVFSSSNVILDGVFCRNSDDCAAVYASTQGFKGGSNNVLVKNATLWADVAHPINIGGHGDPNGMDTVQNVTFRNIDILDQAEKQIDYQGCLAINPGDNTLVRNITFENIRIEDFRNGQLVNFRISFNPKYCVSTGRGIQNVLVKDVTYNGSGENLSIIAGYDENHKISGIRFVNLVVNGRKITDDMPGKPKWYKTGDMAGIFVGEHVENLSFE”, the protein production entry was “failed”.
Under “MNYQLFKHSDENASYVVFSSGLGGHGSFWQAQLDVFRQYFHVLIYDQEGCHASSELLADGYSFEHLALQVKQLLQQLNIVRFHFIGHALGGFIGIELAHRYASETCQLLSLTLINAWQQLDPHTLRCFTTRIALLQHAGTAAYLHAQALFLYPPLWISEHTALLEQQEAKMQSDFPPHANVLKRLNALMQYQVNTARIDTLKQLPVCLIANQDDMLVPYVQSLNLWKKLPDAQLKLLPYGGHASTVTEARQVNQLMLDFLK” stands “failed”.
For “MPAIGSAPDGSRVSFMPKAWLLLALLLLLSLPARAEEWPALQWSQGTPASGPALQALEEYAFVPRDDESRQGIRTDALLVIRDGRLLYERYAGATGPQTPHLAWSASKSLLAVLLGVAFGEGRFQLQDPAAKFYPPLEAHPDITLADLLHWASGLDWQEDYEYAPLNSSVVAMLYTRGHRDMAAFTVQQAASGPPGQVFRYSSGDSNLLAASLRGMVGEGQYADYPWRALFEPLGITQAVWERDAAGTFVASSYLYLTARDLARIGLLMQRDGRWRDRQLLPKAWVEFCRTPFRGYRANQDVAVAGGHWWLNREVDGAPRPWPDAPADTYAALGHWGQALYVLPAQRLVIVRYGDDRDGSYQHNELLKRVLAAFATPEQP”, the protein production entry is “failed”.
As for “MPAKVLINGYGSIGKRVADAVSMQDDMEVIGVTKTKPDFEARLAVEKGYKLFVAIPDNERVKLFEDAGIPVEGTILDIIEDADIVVDGAPKKIGKQNLENIYKPHKVKAILQGGEKAKDVEDNFNALWSYNRCYGKDYVRVVSCNTTGLCRILYAINSIADIKKARIVLVRRAADPNDDKTGPVNAITPNPVTVPSHHGPDVVSVVPEFEGKILTSAVIVPTTLMHMHTLMVEVDGDVSRDDILEAIKKTPRIITVRAEDGFSSTAKIIEYGRDLGRLRYDINELVVWEESINVLENEIFLMQAVHQESIVIPENIDCIRAMLQMEEDNFKSIEKTNKAMGIQ”, the protein production result is on record as “not failed”.
The same measure for “MPATPSLKVVHELPACTLCAGPLEDAVTVPCGHTFCRLCLPALSQMGAQSSGKILLCPLCQEEEQAETPMAPVPLGPLGETYCEEHGEKIYFFCENDAEFLCTSECRTTDGFGCA”: “failed”; for “MPCRGLHAIPAGPPEFPELATIYVVCGDKLNVMIDAGVTNSIMDSSFLEKLDLVILTHIHIDHIGLLPEILDRYKNAKVMIKNGFKKFLTTEDGVRRLNESSEKVLGDLYYIYGEFTKIDPDKVVEVEGGEMIDIGDGKTLKIIYTPGHAKHHISVVSDDILFTGDSGGAYFNGAVIPTTPPPLDYDNYVNSLRLQISLKPKVVGLAHGGLVSPNILEQHLDQMLGKESFDIGEIDIGGIGGEILRKQVEVNLRGLNEALGRNKKTLLEHHHHHH”: “failed”.
In the case of “MPDLTRRNFSNLLSFPMPDTRPAKAGGQPRPFFRLGVVRFGLATALALFWVGAFASTATGQRTSRTPDQLENVGVDQKLGATIPKDLSFQNEQGEPVRLSQYFDGSTPVMLTLNYHRCPQLCRIQLQKFTKSLSGMSWTAGDKFKVLTVDISPYEGPKMARKAQERYATFLDRPEETVDGWHFLTGNQAAIETLTDSVGFRYQPLPEKEKQFAHPTTIIFLSGDGTITRYFTTLDPAPGDLRTALVEASDGTVGNVVDKAFLACARFNPDSNSYSASAFKLMQYGSVLTVIVMGAALFVFWRRENEQLETAHEEGLNAMVDEQA”, the protein production result is on record as “failed”.
